Data: US20120058906A1 (published 2012)
Numbering of substitutions follows the chain as printed. Where two headings read alike, the source gives them in different places.

Key:
[1] = biological target: T1, rHuman IGF-1 sR (IGF-1 sR), CF (R&D Systems Cat#391-GR) (human, UniProt P08069 31-932); experiment: ECL (MSD multi-spot), antigen spotted on plate; Fab 11 nM; blank spot 212
T1 construct: Bought soluble receptor; also called insulin-like growth factor-1 soluble receptor; IGF-R1

[2] = biological target: T2, rHuman P-Cadherin/Fc Chimera, CF (R&D Systems Cat#861-PC) (human, UniProt P22223 108-654); experiment: as above
T2 construct: Bought reagent; also called CDH3; Fc part of the bought chimera not given

[3] = biological target: T3, rHuman CD44/Fc Chimera, CF (R&D Systems Cat#3660-CD) (human, UniProt P16070 21-220); experiment: ECL (MSD multi-spot), antigen on plate, Fab 2 nM
T3 construct: Bought Fc chimera; not shown: Fc of the bought chimera

[4] = biological target: T4, rHuman IGF-1 sR (insulin-like growth factor-1 soluble receptor), CF (R&D Systems Cat#391-GR) (human, UniProt P08069 31-932); experiment: ECL (MSD multi-spot), antigen on plate, Fab 2 nM
T4 construct: Bought soluble receptor; also called IGF-R1

[5] = biological target: T5, rHuman P-Cadherin/Fc Chimera, CF (R&D Systems Cat#861-PC) (human, UniProt P22223 108-654); experiment: ECL (MSD multi-spot), antigen on plate, Fab 2 nM
T5 construct: Bought Fc chimera; also called CDH3; not shown: Fc of the bought chimera

[6] = biological target: T6, rHuman Erythropoietin R/Fc Chimera, CF (R&D Systems Cat#963-ER) (human, UniProt P19235 25-250); experiment: ECL (MSD multi-spot), antigen on plate, Fab 2 nM
T6 construct: Bought Fc chimera; also called EPO R/Fc; Epo R; not shown: Fc of the bought chimera
T6 sequence: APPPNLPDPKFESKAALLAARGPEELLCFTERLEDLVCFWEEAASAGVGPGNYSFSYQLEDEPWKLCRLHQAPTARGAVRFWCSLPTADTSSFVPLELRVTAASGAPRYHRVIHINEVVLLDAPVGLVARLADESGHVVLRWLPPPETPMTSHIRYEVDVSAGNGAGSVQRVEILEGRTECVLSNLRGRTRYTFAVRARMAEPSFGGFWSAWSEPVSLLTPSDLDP

[7] = biological target: T7, Recombinant Human DLL4 (R&D Systems Cat#1506-D4/CF) (human, UniProt Q9NR61 27-524); experiment: ECL (MSD multi-spot), antigen on plate, Fab 2 nM
T7 construct: Bought recombinant protein; also called delta-like protein 4

[8] = biological target: T8, rHuman ErbB2/Fc Chimera, CF (R&D Systems Cat#1129-ER) (human, UniProt P04626 23-652); experiment: ECL (MSD multi-spot), antigen on plate, Fab 2 nM
T8 construct: Bought Fc chimera; also called HER2/neu; not shown: Fc of the bought chimera

[9] = biological target: T9, rHuman EGF R/Fc Chimera, CF (R&D Systems Cat#344-ER) (human, UniProt P00533 25-645); experiment: ECL (MSD multi-spot), antigen on plate, Fab 2 nM
T9 construct: Bought Fc chimera; also called ErbB-1; not shown: Fc of the bought chimera

[10] = biological target: T10, rHuman HGF R/c-MET/Fc Chimera, CF (R&D Systems Cat#358-MT/CF) (human, UniProt P08581 25-932); experiment: ECL (MSD multi-spot), antigen on plate, Fab 2 nM
T10 construct: Bought Fc chimera; also called HGF R/Fc; not shown: Fc of the bought chimera

[11] = biological target: T11, rHuman Notch-1/Fc Chimera, CF (R&D Systems Cat#3647-TK) (human, UniProt P46531 19-526); experiment: ECL (MSD multi-spot), antigen on plate, Fab 2 nM
T11 construct: Bought Fc chimera; not shown: Fc of the bought chimera

[12] = biological target: T3, rHuman CD44/Fc Chimera, CF (R&D Systems …); experiment: ECL (MSD multi-spot), antigen on plate, Fab 2 nM; remark: listed apart in the source
[13] = biological target: T4, rHuman IGF-1 sR (insulin-like growth …); experiment: ECL (MSD multi-spot), antigen on plate, Fab 2 nM; remark: listed apart in the source
[14] = biological target: T5, rHuman P-Cadherin/Fc Chimera, CF (R&D …); experiment: ECL (MSD multi-spot), antigen on plate, Fab 2 nM; remark: listed apart in the source
[15] = biological target: T6, rHuman Erythropoietin R/Fc Chimera, CF …; experiment: ECL (MSD multi-spot), antigen on plate, Fab 2 nM; remark: listed apart in the source
[16] = biological target: T7, Recombinant Human DLL4 (R&D Systems …); experiment: ECL (MSD multi-spot), antigen on plate, Fab 2 nM; remark: listed apart in the source
[17] = biological target: T8, rHuman ErbB2/Fc Chimera, CF (R&D …); experiment: ECL (MSD multi-spot), antigen on plate, Fab 2 nM; remark: listed apart in the source
[18] = biological target: T9, rHuman EGF R/Fc Chimera, CF (R&D …); experiment: ECL (MSD multi-spot), antigen on plate, Fab 2 nM; remark: listed apart in the source
[19] = biological target: T10, rHuman HGF R/c-MET/Fc Chimera, CF (R&D …); experiment: ECL (MSD multi-spot), antigen on plate, Fab 2 nM; remark: listed apart in the source
[20] = biological target: T11, rHuman Notch-1/Fc Chimera, CF (R&D …); experiment: ECL (MSD multi-spot), antigen on plate, Fab 2 nM; remark: listed apart in the source
[21] = biological target: T3, rHuman CD44/Fc Chimera, CF (R&D Systems …); experiment: ECL (MSD multi-spot), antigen on plate, Fab 2 nM; remark: listed apart in the source
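Note: blank spot per well as comparator with Hit at signal to blank ratio of 4 or more.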

B1: Fab VH1-46_IGHD3-10*01_IGHJ4*01 & B3_IGKJ1*01 (Fab, V domains shown)
VH: QVQLVQSGAEVKKPGASVKVSCKASGYTFTSYYMHWVRQAPGQGLEWMGIINPSGGSTSYAQKFQGRVTMTRDTSTSTVYMELSSLRSEDTAVYYCAREYYYGSGSYYNDYFDYWGQGTLVTVSS
VL: not shown
notes: also called IGHV1-46*01
- ECL signal [1]: 289
- ECL signal [2]: 270

B2: Fab VH1-46_IGHD6-6*01_IGHJ1*01_S102A_S103P_S104F & L6_IGKJ1*01_S28P (Fab, V domains shown)
VH: QVQLVQSGAEVKKPGASVKVSCKASGYTFTSYYMHWVRQAPGQGLEWMGIINPSGGSTSYAQKFQGRVTMTRDTSTSTVYMELSSLRSEDTAVYYCAREEYAPFSAEYFQHWGQGTLVTVSS
VL: EIVLTQSPATLSLSPGERATLSCRASQPVSSYLAWYQQKPGQAPRLLIYDASNRATGIPARFSGSGSGTDFTLTISSLEPEDFAVYYCQQRSNWPPWTFGQGTKVEIKR
notes: Fab
- ECL signal [3]: 266 ECL signal

B3: Fab VH1-46_IGHD6-6*01_IGHJ1*01_S102A_S103P_S104F & L6_IGKJ1*01_S30N (Fab, V domains shown)
VH: B2 VH
VL: B2 VL with P28S, S30N
notes: Fab
- ECL signal [4]: 296 ECL signal
- ECL signal [5]: 395 ECL signal
- ECL signal [6]: 294 ECL signal
- ECL signal [7]: 11400 ECL signal
- ECL signal [8]: 138 ECL signal
- ECL signal [9]: 171 ECL signal
- ECL signal [10]: 207 ECL signal
- ECL signal [11]: 274 ECL signal
- ECL signal [12]: 209 ECL signal

B4: Fab VH1-46_IGHD6-6*01_IGHJ1*01_S102A_S103P_S104F & L6_IGKJ1*01_S31K (Fab, V domains shown)
VH: B2 VH
VL: B2 VL with P28S, S31K
notes: Fab
- ECL signal [13]: 222 ECL signal
- ECL signal [14]: 351 ECL signal
- ECL signal [15]: 326 ECL signal
- ECL signal [16]: 10500 ECL signal
- ECL signal [17]: 337 ECL signal
- ECL signal [18]: 197 ECL signal
- ECL signal [19]: 183 ECL signal
- ECL signal [20]: 202 ECL signal
- ECL signal [21]: 146 ECL signal
